Measured values: patent US20240398911A1

Columns and labels:
[1] = target: SARS-CoV2 RBD-8h (Gamma) (SARS-CoV-2 (Gamma)) (UniProt P0DTC2); experiment: BLI, IgG protein immobilized, monomeric RBD-8h analyte
[2] = target: SARS-CoV2 RBD-8h (Delta) (SARS-CoV-2 (Delta)) (UniProt P0DTC2); experiment: as above

VIR-7831 (sotrovimab) (antibody)
kon [1]: 97000 M⁻¹ s⁻¹ | Kd [2]: < 0.1 nM | koff [2]: < 1e-07 s⁻¹ | kon [2]: 100000 M⁻¹ s⁻¹
